{
  "source": "patent US20220008520A1",
  "about": "“METHODS AND MATERIALS FOR REDUCING AGE-RELATED STRIATED MUSCLE AND COGNITIVE DECLINE” (University of Pittsburgh - Of the Commonwealth System of …, priority 2018, published 2022)",
  "molecules": {"B1": {"name": "α-Klotho: recombinant/exogenous α-Klotho protein (R & D systems, Product no. aa 34-981) (protein)", "chain": "AEPGQGAQTWARFARAPAPEAAGLLHDTFPDGFLWAVGSAAYQTEGGWRQHGKGASIWDTFTHHSGAAPSDSPIVVAPSGAPSPPLSSTGDVASDSYNNVYRDTEGLRELGVTHYRFSISWARVLPNGTAGTPNREGLRYYRRLLERLRELGVQPVVTLYHWDLPQRLQDTYGGWANRALADHFRDYAELCFRHFGGQVKYWITIDNPYVVAWHGYATGRLAPGVRGSSRLGYLVAHNLLLAHAKVWHLYNTSFRPTQGGRVSIALSSHWINPRRMTDYNIRECQKSLDFVLGWFAKPIFIDGDYPESMKNNLSSLLPDFTESEKRLIRGTADFFALSFGPTLSFQLLDPNMKFRQLESPNLRQLLSWIDLEYNHPPIFIVENGWFVSGTTKRDDAKYMYYLKKFIMETLKAIRLDGVDVIGYTAWSLMDGFEWHRGYSIRRGLFYVDFLSQDKELLPKSSALFYQKLIEDNGFPPLPENQPLEGTFPCDFAWGVVDNYVQVDTTLSQFTDPNVYLWDVHHSKRLIKVDGVVAKKRKPYCVDFSAIRPQITLLREMRVTHFRFSLDWALILPLGNQTQVNHTVLHFYRCMISELVHANITPVVALWQPAAPHQGLPHALAKHGAWENPHTALAFADYANLCFKELGHWVNLWITMNEPNTRNMTYRAGHHLLRAHALAWHLYDDKFRAAQKGKISIALQADWIEPACPFSQNDKEVAERVLEFDIGWLAEPIFGSGDYPRVMRDWLNQKNNFLLPYFTEDEKKLVRGSFDFLAVSHYTTILVDWEKEDPMKYNDYLEVQEMTDITWLNSPSQVAVVPWGLRKVLNWLRFKYGDLPMYVTANGIDDDPHAEQDSLRIYYIKNYVNEALKAYVLDDINLCGYFAYSLSDRSAPKSGFYRYAANQFEPKPSMKHYRKIIDSNGFLGSGTLGRFCPEEYTVCTECGFFQTRKSLLVFISFLVFTFIISLALIFHYSKKGQRSYK"}},
  "key": {"MPCs [1]": {"system": "MPCs", "assay": "qPCR-based analysis of mtDNA damage and mtDNA copy number in MPCs", "type": "cell-based, mice", "details": "aged MPCs, recombinant α-Klotho in culture for 48 hours, 0.05μg/mL", "protocol": "mtDNA integrity was next examined in MPCs isolated from young or aged mice, using a qPCR-based assay. The method used is based on the principle that a wide variety of types of DNA damage have the propensity to block DNA polymerase progression (see, e.g., Furda et al., 2012 DNA Repair (Amst), 11:684-92). Therefore, this assay detects numerous kinds of base DNA damage or DNA repair intermediates such as abasic sites, as well as single and double DNA strand breaks.\nMPCs were treated with 25 nmol of silencing RNA (siRNA) to α-Klotho (GE Dharmacon, Product no.SO2462181G) for 48 hours. As a control, young MPCs were treated with a non-targeting (scramble) siRNA. […]\nOxygen consumption rate (OCR) and extracellular acidification rate (ECAR) were measured in real time using a Seahorse XFe96 Extracellular Flux Analyzer (Billerica, Mass.) as described elsewhere (see, e.g., de Moura and Van Houten, 2014 Methods Mol Biol, 1105:589-602). The basal OCR was measured by averaging the OCR values before treating the cells with oligomycin. Total reserve capacity was calculated by the differences of OCR between treatment with FCCP and 2DG and basal values. Mitochondrial DNA damage was quantified as described elsewhere (see, e.g., Sanders et al., 2014 Toxicol Sci, 142:395-402; and Sanders et al., 2014 Neurobiol Dis, 62:381-6). […]"}, "MPCs [2]": {"system": "MPCs", "assay": "Seahorse XFe96 analysis of MPC bioenergetics (basal OCR, reserve capacity)", "type": "cell-based, mice", "details": "aged MPCs, recombinant α-Klotho in culture for 48 hours, 0.05μg/mL", "protocol": "In light of the loss of mitochondrial ultrastructural resulting from decreased α-Klotho expression, we next evaluated whether loss of α-Klotho drives MPC mitochondrial dysfunction. The bioenergetic profiles of young and aged MPCs were studied using a Seahorse XFe96 Flux analyzer, which measures oxygen consumption rate (OCR), a measure of oxidative phosphorylation. OCR was measured again after injection of oligomycin, FCCP, 2-deoxyglucose (2-DG), and rotenone. […] When young MPCs were treated with siRNA to α-Klotho, basal OCR was reduced to ˜25% values of scramble-treated counterparts (FIG. 4C, FIG. 14). MPCs isolated from uninjured Kl+/− mice display a similarly blunted bioenergetic profile (FIG. 4D). […] Reserve capacity represents the spare bioenergetic capacity, is calculated as the difference between the basal and maximal OCR, and indicates the ability of a cell to respond to stress. […]\nOxygen consumption rate (OCR) and extracellular acidification rate (ECAR) were measured in real time using a Seahorse XFe96 Extracellular Flux Analyzer (Billerica, Mass.) as described elsewhere (see, e.g., de Moura and Van Houten, 2014 Methods Mol Biol, 1105:589-602). The basal OCR was measured by averaging the OCR values before treating the cells with oligomycin. Total reserve capacity was calculated by the differences of OCR between treatment with FCCP and 2DG and basal values. […]"}, "aged mice": {"system": "aged mice", "assay": "Cardiotoxin TA muscle injury in aged mice, α-Klotho supplementation in vivo", "details": "for functional recovery (wire hang test, in situ contractile testing) / myofiber area / number of regenerating fibers: daily i.p. 10 μg/kg", "protocol": "Wild-type male C57BL/6 young, Kl+/− mice, or old mice received injuries to bilateral Tibialis Anterior (TA) muscles via an intramuscular injection of cardiotoxin (10 μL of 1 mg/mL). Fourteen days following the injury, TAs were harvested for histological analysis of α-Klotho, fibrosis (picrosirius red), degenerating myofibers (IgG) and myofiber regeneration (laminin). Second Harmonic Generation (SHG) imaging was performed on isolated TA muscles treated with a non-targeting control or lentiviral knockdown of α-Klotho, as well as pump-administered animals in order to visualize collagen and myofibers within the muscle 14 days post injury, as described elsewhere (see, e.g., Zhang et al., 2016 Stem Cells 34:732-742).\nStrength endurance was tested using the hang-wire test as described elsewhere (see, e.g., Aartsma-Rus et al., J. Vis. Exp 85:51303 (2014)). The Hang Impulse (HI) score was calculated as bodyweight (grams)×time hung (seconds). Male mice were used for all testing using C57B1/6 mice. Wild type and Kl+/− were females for testing.\nMini osmotic pumps containing either saline or α-Klotho (324 pg/ml in saline vehicle) were inserted subcutaneously into aged mice. After 2 days, bilateral TA muscles were injured by intramuscular CTX injection (as above). Osmotic pumps remained implanted until euthanasia 14 days post injury. Isotonic saline or α-Klotho (10 μg/kg body weight) was administered to aged animals via daily intraperitoneal injections over days 1-3 post-injury or 3-5 days post-injury. The TAs were then harvested 14 days post injury and preserved for histology or SHG analysis. Blood serum was also collected to evaluate circulating α-Klotho levels via ELISA. The activity of α-Klotho was confirmed as described elsewhere (see, e.g., Shalhoub et al., 2011 Calcif Tissue Int, 89:140-50)."}, "OGG1 and APE1": {"system": "OGG1 and APE1", "assay": "LXRepair multiplex DNA base excision repair enzyme activities in MPCs", "type": "cell-based, mice", "details": "siRNA-treated MPCs from young animals, 48 hours of α-Klotho supplementation", "protocol": "LXRepair multiplex technology (see, e.g., Garreau-Balandier et al., 2014 FEBS Lett, 588:1673-9; and Sauvaigo et al., 2004 Anal Biochem, 333:182-92) was used to evaluate the DNA base excision repair (BER) enzyme activities of OGG1 and APE1, which work on two common oxidative DNA lesions, 8-oxodG and abasic sites, respectively.\nMPCs were treated with 25 nmol of silencing RNA (siRNA) to α-Klotho (GE Dharmacon, Product no.SO2462181G) for 48 hours. As a control, young MPCs were treated with a non-targeting (scramble) siRNA. Aged MPCs were treated with 0.05μg/mL exogenous α-Klotho (R & D systems, Product no. aa 34-981), added to the culture media for 48 hours."}},
  "data": [
    {"molecule": "B1", "values": [
      {"measurement": "mtDNA damage", "setting": "MPCs [1]", "value": "decreased mtDNA damage"},
      {"measurement": "OCR", "setting": "MPCs [2]", "value": "increased OCR"},
      {"measurement": "reserve capacity", "setting": "MPCs [2]", "value": "increased reserve capacity"},
      {"measurement": "functional recovery (wire hang test, in situ contractile testing)", "setting": "aged mice; 1-3 dpi", "value": "only animals receiving α-Klotho over 3-5 dpi displayed an improved functional recovery"},
      {"measurement": "myofiber area", "setting": "aged mice; 1-3 dpi", "value": "significant increase in myofiber area"},
      {"measurement": "number of regenerating fibers", "setting": "aged mice; 1-3 dpi", "value": "significant increase in the number of regenerating fibers"},
      {"measurement": "functional recovery (wire hang test, in situ contractile testing)", "setting": "aged mice; 3-5 dpi", "value": "improved functional recovery"},
      {"measurement": "myofiber area", "setting": "aged mice; 3-5 dpi", "value": "significant increase in myofiber area"},
      {"measurement": "number of regenerating fibers", "setting": "aged mice; 3-5 dpi", "value": "significant increase in the number of regenerating fibers"},
      {"measurement": "local α-Klotho within the injured muscle areas", "setting": "aged mice; osmotic pump, 324 pg/ml, 14 dpi", "value": "significant increase in local α-Klotho"},
      {"measurement": "increase in the number of MyoD+ cells at the site of injury", "setting": "aged mice; osmotic pump, 14 dpi", "value": "approximately 3.5 fold"},
      {"measurement": "number of regenerating fibers after injury (histology and SHG)", "setting": "aged mice; osmotic pump, 14 dpi", "value": "increased number of regenerating fibers"},
      {"measurement": "myofiber cross sectional area", "setting": "aged mice; osmotic pump, vs saline", "value": "no significant increase"},
      {"measurement": "total muscle area", "setting": "aged mice; osmotic pump, vs saline", "value": "no significant increase"},
      {"measurement": "activity of BER enzymes (OGG1, APE1; 8-oxodG and abasic sites)", "setting": "OGG1 and APE1", "value": "dramatically stimulated the activity of these BER enzymes"},
      {"measurement": "activity of BER enzymes (OGG1, APE1; 8-oxodG and abasic sites)", "setting": "OGG1 and APE1; listed as Klotho", "value": "stimulated repair"}
    ]}
  ]
}
